# Measured values from paper PMC8091058, “Distinct intramolecular interactions regulate autoinhibition of vinculin binding in αT-catenin and αE-catenin” (The Journal of Biological Chemistry, 2021).
# T1: vinculin D1 (aa 1–259) (UniProt P12003 1-259)
# T1 construct: vinculin D1 fragment, aa 1-259, the first 2 four-helix bundles; in pGEX-TEV; also called vinculin aa 1 to 259 (D1); vinculin N-terminus; source: E. coli BL21-Gold, purified (glutathione-agarose, TEV cleavage, Mono Q or Mono S, S200)
# T1 sequence (looked up): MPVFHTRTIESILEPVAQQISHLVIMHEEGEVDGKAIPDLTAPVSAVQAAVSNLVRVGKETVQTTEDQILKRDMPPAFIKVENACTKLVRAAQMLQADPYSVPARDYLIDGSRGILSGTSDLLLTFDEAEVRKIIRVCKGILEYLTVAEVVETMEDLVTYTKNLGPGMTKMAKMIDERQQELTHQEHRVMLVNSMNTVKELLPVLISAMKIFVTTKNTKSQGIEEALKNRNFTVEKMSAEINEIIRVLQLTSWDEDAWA
# T2: αT-catenin head region (aa 1–659) (Mus musculus, UniProt Q65CL1 1-659)
# T2 construct: αT-catenin, Mus musculus, head region (N- and M-domains), aa 1-659; in pGEX-TEV; also called αT-catenin head (1–659); αT-catenin N1-M3 (aa 1–659); source: E. coli BL21-Gold, purified (glutathione-agarose, TEV cleavage, Mono Q or Mono S, S200)
# T2 sequence (looked up): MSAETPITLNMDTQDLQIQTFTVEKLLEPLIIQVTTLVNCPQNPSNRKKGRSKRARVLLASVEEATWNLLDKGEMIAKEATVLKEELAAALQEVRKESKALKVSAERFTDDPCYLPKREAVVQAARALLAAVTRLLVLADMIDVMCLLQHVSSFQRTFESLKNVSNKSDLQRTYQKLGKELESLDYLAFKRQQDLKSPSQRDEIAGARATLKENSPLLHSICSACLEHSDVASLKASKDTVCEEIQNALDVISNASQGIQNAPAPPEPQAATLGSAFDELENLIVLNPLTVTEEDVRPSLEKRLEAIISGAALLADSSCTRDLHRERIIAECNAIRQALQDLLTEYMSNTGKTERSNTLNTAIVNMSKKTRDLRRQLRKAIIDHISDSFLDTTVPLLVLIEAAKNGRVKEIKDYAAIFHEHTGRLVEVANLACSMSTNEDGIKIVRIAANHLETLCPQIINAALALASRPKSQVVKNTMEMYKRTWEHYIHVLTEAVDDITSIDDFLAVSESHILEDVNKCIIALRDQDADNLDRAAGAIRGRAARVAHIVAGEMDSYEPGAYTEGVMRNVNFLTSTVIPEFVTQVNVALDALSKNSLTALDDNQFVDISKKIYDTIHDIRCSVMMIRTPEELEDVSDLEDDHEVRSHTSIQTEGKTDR
# T3: αT-catenin N1-N2 (aa 1–259) (Mus musculus, UniProt Q65CL1 1-259)
# T3 construct: αT-catenin, Mus musculus, N1-N2, aa 1-259; in pGEX-TEV; also called αT-catenin WT N1-N2; αT-catenin N1-N2 (1–259); source: E. coli BL21-Gold, purified (glutathione-agarose, TEV cleavage, Mono Q or Mono S, S200)
# T3 sequence (looked up): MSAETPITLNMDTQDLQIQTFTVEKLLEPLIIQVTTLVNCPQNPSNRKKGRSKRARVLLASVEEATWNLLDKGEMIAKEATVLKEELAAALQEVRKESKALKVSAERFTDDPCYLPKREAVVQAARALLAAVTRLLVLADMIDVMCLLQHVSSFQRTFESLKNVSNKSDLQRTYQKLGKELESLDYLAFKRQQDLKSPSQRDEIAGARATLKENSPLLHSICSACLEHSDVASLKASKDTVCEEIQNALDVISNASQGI
# B1: αE-catenin M1-M2 (aa 273–510) (domain or fragment, Mus musculus, UniProt P26231 273-510, looked up)
# chain: GSGGELAYALNNFDKQIIVDPLSFSEERFRPSLEERLESIISGAALMADSSCTRDDRRERIVAECNAVRQALQDLLSEYMGNAGRKERSDALNSAIDKMTKKTRDLRRQLRKAVMDHVSDSFLETNVPLLVLIEAAKNGNEKEVKEYAQVFREHANKLIEVANLACSISNNEEGVKLVRMSASQLEALCPQVINAALALAAKPQSKLAQENMDLFKEQWEKQVRVLTDAVDDITSIDD
# notes: αE-catenin, Mus musculus, M1-M2, aa 273-510; in pGEX-TEV; also called αE-catenin M1-M2 (273–510); source: E. coli BL21-Gold, purified (glutathione-agarose, TEV cleavage, Mono Q or Mono S, S200)
# B2: β-catenin–N-cadherin cytoplasmic tail complex (complex)
# chain 1: MATQADLMELDMAMEPDRKAAVSHWQQQSYLDSGIHSGATTTAPSLSGKGNPEEEDVDTSQVLYEWEQGFSQSFTQEQVADIDGQYAMTRAQRVRAAMFPETLDEGMQIPSTQFDAAHPTNVQRLAEPSQMLKHAVVNLINYQDDAELATRAIPELTKLLNDEDQVVVNKAAVMVHQLSKKEASRHAIMRSPQMVSAIVRTMQNTNDVETARCTAGTLHNLSHHREGLLAIFKSGGIPALVKMLGSPVDSVLFYAITTLHNLLLHQEGAKMAVRLAGGLQKMVALLNKTNVKFLAITTDCLQILAYGNQESKLIILASGGPQALVNIMRTYTYEKLLWTTSRVLKVLSVCSSNKPAIVEAGGMQALGLHLTDPSQRLVQNCLWTLRNLSDAATKQEGMEGLLGTLVQLLGSDDINVVTCAAGILSNLTCNNYKNKMMVCQVGGIEALVRTVLRAGDREDITEPAICALRHLTSRHQEAEMAQNAVRLHYGLPVVVKLLHPPSHWPLIKATVGLIRNLALCPANHAPLREQGAIPRLVQLLVRAHQDTQRRTSMGGTQQQFVEGVRMEEIVEGCTGALHILARDVHNRIVIRGLNTIPLFVQLLYSPIENIQRVAAGVLCELAQDKEAAEAIEAEGATAPLTELLHSRNEGVATYAAAVLFRMSEDKPQDYKKRLSVELTSSLFRTEPMAWNETADLGLDIGAQGEALGYRQDDPSYRSFHSGGYGQDALGMDPMMEHEMGGHHPGADYPVDGLPDLGHAQDLMDGLPPGDSNQLAWFDTDL
# chain 2: MKRRDKERQAKQLLIDPEDDVRDNILKYDEEGGGEEDQDYDLSQLQQPDTVEPDAIKPVGIRRLDERPIHAEPQYPVRSAAPHPGDIGDFINEGLKAADNDPTAPPYDSLLVFDYEGSGSTAGSLSSLNSSSSGGDQDYDYLNDWGPRFKKLADMYGGGDD
# notes: β-catenin, Mus musculus, full length; N-cadherin cytoplasmic tail (Ncad_(cyto)); the methods name no plasmid for the N-cadherin tail; also called β-catenin–Ncad_(cyto); β-cat–Ncad_(cyto); source: β-catenin: E. coli BL21-Gold, purified
# What was measured:
# Conditions in all cases: both partners purified
# vinculin D1 (aa 1–259) = target: T1, vinculin D1 (aa 1–259); test: ITC; vinculin D1 injected into αT-catenin or αE-catenin fragment (or αT-catenin head–β-catenin complex) in the cell; 25 °C; 20 mM Hepes pH 8.0, 150 mM NaCl, 1 mM TCEP
# [1] = target: T2, αT-catenin head region (aa 1–659); test: ITC; β-catenin (110-150 μM) or β-catenin–Ncad_(cyto) complex (103-158 μM) injected into αT-catenin fragment in the cell; 25 °C; 20 mM Hepes pH 8.0, 150 mM NaCl, 1 mM TCEP
# [2] = target: T3, αT-catenin N1-N2 (aa 1–259); test: as above
Binder,Kd (vinculin D1 (aa 1–259)) [nM],dH [1] [kcal/mol],dH [2] [kcal/mol]
B1,31.9 ± 9.1,,
B2,,-27 ± 0.2,-18.9 ± 1
